# Test results reported in patent publication US20050271651A1, “Inhibition of bright function as a treatment for excessive immunoglobulin production” (Oklahoma Medical Research Foundation, published 2005).
# Where a chain is given by its changes, count along the chain named.
# T1: Bright (ARID3A/Dril1) (Homo sapiens, UniProt Q99856 SEQ:1-593)
# T1 sequence: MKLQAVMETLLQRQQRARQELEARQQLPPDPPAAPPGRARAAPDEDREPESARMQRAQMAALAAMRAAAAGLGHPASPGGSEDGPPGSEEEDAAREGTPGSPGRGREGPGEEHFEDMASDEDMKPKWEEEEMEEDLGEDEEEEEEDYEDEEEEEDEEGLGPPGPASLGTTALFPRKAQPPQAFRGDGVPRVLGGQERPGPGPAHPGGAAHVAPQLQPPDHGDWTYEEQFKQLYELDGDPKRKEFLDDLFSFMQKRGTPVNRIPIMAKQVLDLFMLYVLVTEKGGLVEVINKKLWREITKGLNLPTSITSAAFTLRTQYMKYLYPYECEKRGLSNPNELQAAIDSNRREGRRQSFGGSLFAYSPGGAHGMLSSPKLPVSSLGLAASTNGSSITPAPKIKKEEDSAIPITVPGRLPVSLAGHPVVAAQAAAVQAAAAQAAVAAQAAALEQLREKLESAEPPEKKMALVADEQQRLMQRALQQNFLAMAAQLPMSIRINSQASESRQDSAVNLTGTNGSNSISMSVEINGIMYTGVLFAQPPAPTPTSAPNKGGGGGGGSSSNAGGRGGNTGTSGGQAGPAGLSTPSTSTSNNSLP
# T2: mouse Bright, native (untagged) wild-type (mouse, UniProt Q62431 1-601)
# T2 construct: range 1-601; Untagged protein, tested in three forms: expressed in CHO cells, in vitro translated, or endogenous in the mouse B cell lines BCg3R-1d and M12g3Ri; Found as a dimer in solution by size exclusion chromatography; also called native Bright; wild-type Bright
# T2 sequence (looked up): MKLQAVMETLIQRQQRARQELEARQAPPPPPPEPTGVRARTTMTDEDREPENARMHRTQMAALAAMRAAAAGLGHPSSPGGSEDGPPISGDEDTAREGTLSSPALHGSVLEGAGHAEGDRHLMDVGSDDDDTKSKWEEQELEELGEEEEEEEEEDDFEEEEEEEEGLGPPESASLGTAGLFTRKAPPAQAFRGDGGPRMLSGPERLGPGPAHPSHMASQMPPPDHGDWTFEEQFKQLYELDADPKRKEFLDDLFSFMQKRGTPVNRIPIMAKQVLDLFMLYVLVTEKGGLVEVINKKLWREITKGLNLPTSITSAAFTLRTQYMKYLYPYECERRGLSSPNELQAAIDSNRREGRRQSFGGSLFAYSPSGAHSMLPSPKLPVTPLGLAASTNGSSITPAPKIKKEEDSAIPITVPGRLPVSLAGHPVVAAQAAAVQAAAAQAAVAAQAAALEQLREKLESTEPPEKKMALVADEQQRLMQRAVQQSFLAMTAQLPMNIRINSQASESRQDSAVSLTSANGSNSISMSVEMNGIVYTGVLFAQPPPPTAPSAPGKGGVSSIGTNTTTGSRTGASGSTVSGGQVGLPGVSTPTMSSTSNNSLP
# B1: mutated Bright site competitor (dsDNA)
# DNA 1: TAAGTATAAATATGTACATGAGTACACCCTCCACTTATTTATCTTA
# DNA 2: TAAGATAAATAAGTGGAGGGTGTACTCATGTACATATTTATACTTA
# B2: mouse Bright REKLES mutant (REKLES at amino acids 455-460 changed to AEALEA), C-terminal myc-his tagged (other, UniProt Q62431 1-601, looked up)
# chain: T2 sequence (looked up) with R455A, K457A, S460A
# notes: range 1-601; not shown: C-terminal myc-his tag from vector pcDNA4/TO/myc-His B
# Key:
# Bright (ARID3A/Dril1) = target: T1, Bright (ARID3A/Dril1); assay: competition; nonspecific competitor, recombinant Bright; details: tags: TNT rabbit reticulocyte lysate
# Description: Electrophoretic mobility shift assays (EMSAs). Nuclear extracts were prepared by hypotonic lysis, protein concentrations were quantified with Bradford reagents (BioRad, Richmond, Calif.), and EMSAs were performed in 4% nondenaturing acrylamide gels after incubation for 15 min at 37° C. with gamma-³²P-labeled probe, as previously described (Buchanan et al., 1995). The prototypic Bright binding site (a 150 base pair Bam HI-Fok I fragment called bf150) from the S107 V1 5′ flanking sequence (Webb et al., 1991) was used as a probe. In some instances, antibodies were added 5 min before incubation with the probe. […] A double-stranded oligo containing the 45 base pair foot-printed Bright binding site within bf150 described in Webb et al. (1991) was used as a specific competitor in increasing concentrations and a mutated version of that oligonucleotide containing the double-stranded sequence corresponding to 5′-[…]-3′ (SEQ ID NO:6) was used as a non-specific competitor. Underlined nucleotides represent changes from the prototype. Competition assays were performed as previously described (Webb et al., 1991).
# To confirm that the protein complexes that reacted with anti-Bright antibodies in FIG. 2D were specific for the Bright binding site, competition experiments were performed in the presence of double-stranded oligonucleotides spanning the Bright binding motif.
# [1] = target: T2, mouse Bright, native (untagged) …; assay: co-expression in CHO cells, anti-myc immunoprecipitation, anti-Bright blot
# Description: FIGS. 11A-B—Tagged Bright proteins dimerize with native Bright. (FIG. 11A) Nuclear extracts from cells expressing Bright protein were subjected to size exclusion chromatography and protein fractions were analyzed for Bright by western blotting (lower panel). Data are presented graphically relative to molecular weight standards in the upper panel and are representative of four experiments. (FIG. 11B) C-terminal myc-his tagged Bright was either singly or coexpressed in CHO cells with native Bright. […] Immunoprecipitations using anti-myc Ab (middle panel) and anti-Sp1 as an isotype control (bottom panel) were performed with each of the transfected extracts and developed with anti-Bright reagents. Arrows indicate immunoglobulin heavy chain cross-reactive with the secondary reagent. Data are representative of two separate experiments.
# To determine if the mutated proteins formed heterodimers with wild-type Bright, his-myc-tagged mutant forms of Bright were co-expressed in CHO cells with native wild-type Bright. Tagged proteins were distinguished from native Bright by the slight size differences in western blots (FIG. 11B) and were confirmed using anti-tag antibodies (not shown). Anti-myc antibodies were used to immunoprecipitate the tagged proteins and blots were developed with anti-Bright (FIG. 11B). In every case, a lower molecular weight band was detected that reflected the presence of native Bright.
# [2] = target: the molecule itself; assay: size exclusion chromatography (not shown)
Binder,binding result (Bright (ARID3A/Dril1)),binding result [1],binding result [2]
B1,no binding,,
B2,,binds,binds
